From paper PMC9061257

Biological target: pseudouridine kinase from Escherichia coli strain B (EcPUKI), wildtype (E. coli strain B) (UniProt P30235)
Assay: SEC

pseudouridine kinase from Escherichia coli strain B (EcPUKI), wildtype (from UniProt P30235 1-313) (enzyme)
stoichiometry N: 2
